Measured values published in article PMC7308506.

Experiments:
[1] = target: LCTX-F2 (Lycosa singoriensis); test: SPR; Biacore 3000; LCTX-F2 amine-coupled to CM5 (2,000 RU); FXIIa, kallikrein, FXa and thrombin as analytes, 0-100 ug/ml in twofold dilutions; 25 C; HBS-EP (10 mM HEPES pH 7.4, 3 mM EDTA, 150 mM NaCl, 0.05% P20); 30 ul/min, 120 s association, 300 s dissociation
thrombin = thrombin (UniProt P00734)

kallikrein (enzyme)
Kd [1]: 4.6 µM

thrombin (from UniProt P00734 364-622; P00734 364-622) (enzyme)
Kd [1]: 0.7 µM

activated factor XII (enzyme)
Kd [1]: 7.2 µM

LCTX-F2 (peptide)
increase of the relative protease activity of FXIIa (chromogenic substrate) at 0.03, 0.3 and 3 µM LCTX-F2: 1.2%, 44.0%, 96.0% (activated factor XII): 96%
increase of the activity of FXa (chromogenic substrate) at 3 µM LCTX-F2 (activated factor X): 34.8%
increase of the activity of kallikrein (chromogenic substrate) at 3 µM LCTX-F2 (kallikrein): 33.3%
increase of the activity of thrombin (chromogenic substrate) at 3 µM LCTX-F2 (thrombin): 36.9%

activated factor X (enzyme)
Kd [1]: 0.18 µM
